Data reported in patent US8703459B2, “Catalytic domains of beta(1,4)-galactosyltransferase I having altered metal ion specificity” (The United States of America, as represented by the …, priority 2003, dated 2014).
Like-named read-outs stand apart in the source and are kept apart here. Marks after values point to notes of the source that are not given here.

Key:
M344H-Gal-T1 = target: T1, M344H-Gal-T1 (Bos taurus, UniProt P08037, C342T/M344H); test: Acceptor substrate inhibition of M344H-Gal-T1 catalytic activity; assay type: biochemical, bovine; details: in the presence of Mn^2+ (5 mM in FIG. 7c)
T1 construct: codes for residues 130 to 402 of bovine Gal-T1; made in house; host or cells: E. coli BL21(DE3) pLysS (pET23a derivative pEGT-d129)
T1 sequence (P08037 130-402 C342T/M344H): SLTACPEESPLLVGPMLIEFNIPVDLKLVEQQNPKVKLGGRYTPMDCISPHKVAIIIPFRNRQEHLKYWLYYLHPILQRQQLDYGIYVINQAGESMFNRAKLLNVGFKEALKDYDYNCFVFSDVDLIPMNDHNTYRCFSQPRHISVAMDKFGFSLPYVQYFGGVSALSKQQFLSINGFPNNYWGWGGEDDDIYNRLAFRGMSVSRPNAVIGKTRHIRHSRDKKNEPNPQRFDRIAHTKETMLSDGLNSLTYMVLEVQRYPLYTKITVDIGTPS
Method: (§1) FIG. 7 depicts the effect of GlcNAc concentration on Gal-T activity of the M344H-Gal-T1 mutant (a) and wild-type enzyme, C342T-Gal-T1 (b), at different fixed concentrations of Mn^2+: (a) (●) 6 μM, (O) 20 μM, (▾) 0.5 mM, (open triangle) 1.5 mM, and (▪) 5 mM and (b) (●) 6 μM, (open triangle) 80 μM, (▪) 0.5 mM, (▴) 1.5 mM, and (A) 5 mM. The activity of the mutant (a) is inhibited above 2-5 mM GlcNAc at any concentrations of Mn^2+, whereas the activity of the wild type (b) is inhibited at 25-30 mM GlcNAc and above 0.5 mM Mn^2+. (c) Effect of either GlcNAc, chitobiose, or β-benzyl-GlcNAc concentration on Gal-T activity of the mutant M344H-Gal-T1 in the presence of 5 mM Mn^2+. Arrows indicate the inhibition concentration for the respective curves. It is known that the disaccharide chitobiose binds strongly to the Gal-T1 compared to the monosaccharide GlcNAc. The higher the affinity of the acceptor substrate, the lower the required inhibition concentrations.
(§2) The inhibition of the M344H-Gal-T1 mutant with higher concentrations of the acceptor is independent of the concentration of Mn^2+ used in the assay (FIGS. 7A-C), while in the wild type, low concentrations of metal have no effect on acceptor inhibition (FIGS. 7A-C). […]

β4Gal-T1 = target: T2, β4Gal-T1 (Bos taurus, UniProt P08037); details: read-out: Km value of the acceptor; cited from earlier work
T2 sequence (P08037 1-402): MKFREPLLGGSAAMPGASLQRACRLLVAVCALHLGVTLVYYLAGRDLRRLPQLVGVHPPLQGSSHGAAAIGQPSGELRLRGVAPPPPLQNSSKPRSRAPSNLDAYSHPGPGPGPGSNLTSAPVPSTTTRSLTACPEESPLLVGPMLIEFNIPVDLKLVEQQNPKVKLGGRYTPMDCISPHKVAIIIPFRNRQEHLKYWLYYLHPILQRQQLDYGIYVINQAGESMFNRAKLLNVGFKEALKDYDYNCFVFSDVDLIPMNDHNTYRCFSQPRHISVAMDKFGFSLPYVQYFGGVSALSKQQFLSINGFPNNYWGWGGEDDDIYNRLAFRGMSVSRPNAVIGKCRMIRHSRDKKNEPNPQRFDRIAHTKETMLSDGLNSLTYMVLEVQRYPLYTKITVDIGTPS

[1] = Two-substrate kinetic analysis of galactose transfer; assay type: biochemical, bovine; details: with Mn^2+
Text: The true Km of the donor (KA) and of the acceptor (KB), the dissociation constant of the donor, Kia, and kcat, were obtained using two-substrate analyses and the primary plots of at least five concentrations of donor (UDP-Gal) and five concentrations of acceptor, and the corresponding secondary plots of the intercepts and slopes. Initial rate conditions were linear with respect to time. A suitable range of donor and acceptor concentrations was chosen, which allowed accurate Michaelis-Menten constants to be derived. The data were also analyzed for a general two-substrate system using the following equations (Herbert, Initial Rate Enzymatic Kinetics, Springer-Verlag, New York (1975)) with the software EnzFitter, a Biosoft non-linear curve fitting program for Windows:
[formula] Here ν is the initial velocity and the rate equation for a sequential symmetrical, initial velocity pattern associated with equation 1, an ordered or random equilibrium mechanism in which substrate A dissociates well from the ECS complex with a dissociation constant of Kia. Equation 2 is for an asymmetric initial velocity pattern for a double-displacement or “ping-pong” mechanism. The kinetic parameters KA, KB, Kia, and Vmax were obtained from the fitted curves using the above rate equations. The graphical method and EnzFitter program gave very similar kinetic parameters.
This is quite similar to that of the wild-type enzyme (FIG. 2B) (Takase and Ebner, Curr. Top. Cell Regul., 24:51 (1984); Boeggeman and Qasba, Glycobiology, 12:395 (2002)). […] Although the catalytic efficiency with respect to donor and acceptor, compared to the wild-type enzyme with Mn^2+, has decreased by an order of about 13 and 6, respectively, the turnover number of the mutant, kcat, is reduced by only 60%. The lesser effect on kcat could be the result of Mg^2+ participating more efficiently in the formation of the transition state complex during the transfer reaction by the mutant or minor differences in the coordination geometry of the Mg^2+ in the mutant compared to that of Mn^2+ ion in the wild-type enzyme. The crystal structure of the M344H-Gal-T1 in complex with UDP-Gal in the presence of either Mn^2+ or Mg^2+ was then determined and compared to the structure with the wild-type UDP-Gal.metal complex. Crystal structure analysis of the M344E-Gal-T1 mutant in the presence of UDP-Gal and Mn^2+ was conducted to further understand the effect of the M344E mutation on the metal-ion binding site.

[2] = Effect of the acceptor concentration on Gal-T activity of the enzyme; assay type: biochemical, bovine; details: in the presence of Mn^2+
Method: as §1, §2

[3] = Metal ion activation curve, metal binding constants for Mn^2+; assay type: biochemical, bovine; details: with Mn^2+
Text: The activation curve of M344E-Gal-T1, using Mn^2+, is strikingly different from that of the wild-type enzyme (FIGS. 1A and 1B). In contrast to the wild type enzyme, the velocity curve obtained with the Mn^2+ concentration for the M344E-Gal-T1 mutant is not sigmoidal. On the other hand, the same curve for the M344H-Gal-T1 mutant in the presence of the Mg^2+ is sigmoidal (FIG. 1C). The observation that activation of the wild type enzyme by metal ions is sigmoidal has been interpreted as involving two metal binding sites in the enzyme: one with high affinity (Kd1), which is associated with low velocity, and a second site with low affinity (Kd2), which is associated with high velocity (Powell and Brew, J. Biol. Chem., 251:3645 (1976); Boeggeman and Qasba, Glycobiology, 12:395 (2002)). […] The values of the dissociation constant (Kd) for Mn^2+ of the mutant are quite different from that of the wild type (Table IV).
The enzyme activation data at various concentrations of Mg^2+ were fitted to an equation describing metal binding to a high affinity site (K1) to generate an enzyme form with a low kcat (V1) and to a second, lower affinity site (K2) to generate a form with a higher kcat (V2) (Boeggeman and Qasba, Glycobiology, 12:395 (2002)): […]

[4] = β4Gal-T enzyme assay, specific activity in the presence of various metal ions; assay type: biochemical, bovine
Method: Protein concentrations were measured using the Bio-Rad Protein Assay kit, based on the method of Bradford and further verified on SDS-PAGE gels using standard protein concentration markers. An in vitro assay procedure for Gal-T1 has been reported previously (Ramakrishnan et al., J. Mol. Biol., 310:205 (2001)). The activities were measured using UDP-Gal as sugar nucleotide donor, and GlcNAc as the acceptor sugar. For the specific activity measurements, a 100 μL incubation mixture containing 25 mM GlcNAc, 5 mM MnCl2 or MgCl2, 20 mM Tris-HCl pH 8.0, 500 μM UDP-Gal, 500 ng M344H-Gal-T1 or 30 ng of C342T-Gal-T1 and 0.5 μCi ^3H-UDP-Gal was used for each Gal-T reaction. The incubation was carried out at 30° C. for 15 minutes. The reaction was terminated by adding of 200 μl cold water, and the mixture was passed through a 0.5 mL bed volume column of AG 1-X8 […] resin (Bio-Rad) to remove any unreacted ^3H-UDP-Gal. The column was washed successively with 300, 400 and 500 μl of cold water, and the column flow-through was diluted with Biosafe scintillation fluid; radioactivity was measured with a Beckman counter. A reaction without the acceptor sugar was used as a control. Only 0.1 mM concentration of ZnCl2 or CoCl2 was used whenever Zn^2+ or Co^2+ was used during the enzyme assay.

[5] = 5 mM metal ion, 500 μM UDP-Gal, 25 mM GlcNAc

CC(=O)N[C@H]1[C@H](OCc2ccccc2)O[C@H](CO)[C@@H](O)[C@@H]1O [β-benzyl-GlcNAc]
inhibition of the catalytic activity of the M344H-Gal-T1 mutant by the acceptor (M344H-Gal-T1): at very low concentrations much more strongly than GlcNAc does

CC(=O)N[C@H]1[C@H](O[C@H]2[C@H](O)[C@@H](NC(C)=O)C(O)O[C@@H]2CO)O[C@H](CO)[C@@H](O)[C@@H]1O (stereo partly drawn) [chitobiose, βGlcNAc1-4GlcNAc]
inhibition of the catalytic activity of the M344H-Gal-T1 mutant by the acceptor (M344H-Gal-T1): at very low concentrations much more strongly than GlcNAc does | Km (β4Gal-T1): 1 mM

CC(=O)N[C@H]1C(O)O[C@H](CO)[C@@H](O)[C@@H]1O (stereo partly drawn) [GlcNAc, N-acetylglucosamine]
Km (β4Gal-T1): 5 mM

B1: wild-type β4Gal-T1: residues 130 to 402 of bovine Gal-T1 with Cysteine to Threonine exchange at 342 (C342T), used as wild-type enzyme (protein, UniProt P08037 130-402, looked up, variant C342T)
chain: SLTACPEESPLLVGPMLIEFNIPVDLKLVEQQNPKVKLGGRYTPMDCISPHKVAIIIPFRNRQEHLKYWLYYLHPILQRQQLDYGIYVINQAGESMFNRAKLLNVGFKEALKDYDYNCFVFSDVDLIPMNDHNTYRCFSQPRHISVAMDKFGFSLPYVQYFGGVSALSKQQFLSINGFPNNYWGWGGEDDDIYNRLAFRGMSVSRPNAVIGKTRMIRHSRDKKNEPNPQRFDRIAHTKETMLSDGLNSLTYMVLEVQRYPLYTKITVDIGTPS
modifications: catalytic domain
notes: residues 130 to 402 of bovine Gal-T1 with Cysteine to Threonine exchange at 342 (C342T), used as wild-type enzyme
GlcNAc KB (true Km of the acceptor) [1]: 10 mM | Kcat [1]: 3.6 s⁻¹ | Kcat/KA [1]: 40000 M⁻¹ s⁻¹ | Kia (dissociation constant of the donor) [1]: 0 | UDP-Gal KA (true Km of the donor) [1]: 95(6) μM | UDP-Gal Vmax [1]: 6.4(4) pmol min^−1 ng^−1 | GlcNAc concentrations at which catalytic activity is inhibited [2]: 20 to 25 mM | GlcNAc concentrations at which catalytic activity is inhibited ([2]; listed as C342T-Gal-T1): 25 to 30 mM | Kd ([3]; read-out: metal ion Kd1): 30 µM | Kd ([3]; read-out: metal ion Kd2): 400 µM | Catalytic Activity in the Presence of Various Metal Ions: Co ([4]; 0.1 mM Co^2+, 500 μM UDP-Gal, 25 mM GlcNAc): 0.41^b picomoles per minute per nanogram | Catalytic Activity in the Presence of Various Metal Ions: Zn ([4]; 0.1 mM Zn^2+, 500 μM UDP-Gal, 25 mM GlcNAc): 1.42 picomoles per minute per nanogram | Catalytic Activity in the Presence of Various Metal Ions: Ca [4, 5]: 0 picomoles per minute per nanogram | Catalytic Activity in the Presence of Various Metal Ions: Mg [4, 5]: 0 picomoles per minute per nanogram | Catalytic Activity in the Presence of Various Metal Ions: Mn [4, 5]: 5.35 picomoles per minute per nanogram | Catalytic Activity in the Presence of Various Metal Ions: Sr [4, 5]: 0 picomoles per minute per nanogram | activation of the enzyme by Mg^2+ ([4]; Mg^2+): does not activate
